Measurements published in paper PMC2807407 (Molecular cell, 2009).

T1: Dsk2-UBL D64K (Saccharomyces cerevisiae, UniProt P48510 1-75, D64K)
T1 sequence: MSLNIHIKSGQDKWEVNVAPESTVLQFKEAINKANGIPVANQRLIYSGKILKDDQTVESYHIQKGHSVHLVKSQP

T2: Dsk2 (full length) (Saccharomyces cerevisiae, UniProt P48510 1-373)
T2 sequence (looked up): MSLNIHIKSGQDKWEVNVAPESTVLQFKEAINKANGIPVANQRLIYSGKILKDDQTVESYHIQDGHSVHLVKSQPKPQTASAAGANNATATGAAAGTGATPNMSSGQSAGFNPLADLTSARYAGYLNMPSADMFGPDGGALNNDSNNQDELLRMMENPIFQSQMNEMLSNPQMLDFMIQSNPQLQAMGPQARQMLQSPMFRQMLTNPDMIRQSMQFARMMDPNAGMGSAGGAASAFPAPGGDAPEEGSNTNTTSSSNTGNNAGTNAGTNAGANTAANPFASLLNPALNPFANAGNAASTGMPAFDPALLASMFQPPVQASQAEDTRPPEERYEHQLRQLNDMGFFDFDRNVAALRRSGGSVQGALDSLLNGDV

B1: Dsk2-UBL (domain or fragment, Saccharomyces cerevisiae)
chain: MSLNIHIKSGQDKWEVNVAPESTVLQFKEAINKANGIPVANQRLIYSGKILKDDQTVESYHIQDGHSVHLVKSQP
B2: Rpn10 C-terminal construct Rpn10_(204-268) (domain or fragment, Saccharomyces cerevisiae, UniProt P38886 204-268, looked up)
chain: GSGGDSDANGTFMDFGVDPSMDPELAMALRLSMEEEQQRQERLRQQQQQQDQPEQSEYPEQHQDK

Legend:
[1] = target: B2; assay: NMR titration
Dsk2-UBL [2] = target: B1; assay: NMR titration
Dsk2-UBL D64K [3] = target: T1, Dsk2-UBL D64K; assay: NMR titration
Dsk2-UBL [4] = target: B1; assay: SPR
Dsk2 (full length) = target: T2, Dsk2 (full length); assay: SPR
Dsk2-UBL D64K [5] = target: T1, Dsk2-UBL D64K; assay: SPR

| stoichiometry N [1] | Kd (Dsk2-UBL [2]) [µM] | Kd (Dsk2-UBL D64K [3]) [µM] | Kd (Dsk2-UBL [4]) [µM] | Kd (Dsk2 (full length)) [µM] | Kd (Dsk2-UBL D64K [5]) [µM] | Binder |
| --- | --- | --- | --- | --- | --- | --- |
| 1 | – | – | – | – | – | B1 |
| – | 3.5 ± 0.7 | 39 ± 17 | 9 | 12.5 | 31.8 | B2 |
